One may read the EC50 as the midpoint of the concentration-response curve. What is called Kd is the concentration at which binding is half-saturated. Higher therefore signals weaker binding.

Ends that are not written are not given here.

Experiment [1] concerns the target T1, IAPP amyloid-like fibrils (human, UniProt P10997 34-70).
T1 construct: islet amyloid polypeptide, the mature hormone; Fibrillar state; also called IAPP fibrils; islet amyloid polypeptide fibrils; source: bought: Anaspec (90% pure); fibrils prepared in sterile PBS
T1 peptide (looked up): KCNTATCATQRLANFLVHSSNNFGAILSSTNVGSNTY
The experiment is described as follows: ELISA; EuLISA: amyloid-like fibrils (0.83 µM) adsorbed to microplate wells overnight at 37°C, blocked with 1% BSA in PBS; Fcp5, biotinylated-p5 or Fc2a titrated in PBS with 1% BSA and 0.05% tween 20; detected with biotinylated goat anti-mouse IgG and europium-streptavidin; estimated EC50. Particulars: both partners purified.

The target in experiment [2] is Aβ(1–40) amyloid-like fibrils. The experiment is described as above.
Experiment [3] deals with rVλ6Wil amyloid-like fibrils. The description is as above.
Experiment [4] has as its target rVλ6Wil amyloid-like fibrils. The experiment is described as follows: SPR; BIAcore X, CM5 chip coated with rVλ6Wil fibrils (channel 1) and rVλ6Wil monomer (channel 2, subtracted as control); Fcp5 2 µg/mL or p5 0.2 µg/mL, 70 µL, 20 µL/min, 200 s binding and 200 s dissociation; two-state binding algorithm with conformational change.

B1: Fcp5 (peptide p5-murine IgG2a Fc fusion) (Fc fusion)
chain: VTPTVGGGYSKAQKAQAKQAKQAQKAQKAQAKQAKQVTPTV
modifications: not fully specified (C-terminus); also: fused to murine IgG2a Fc, glycosylated, site not given here
notes: 5-amino acid spacer flanking p5; peptide p5, non-natural 31-amino acid polybasic peptide; Disulfide-linked dimer by SDS-PAGE (theoretical monomer Mw 31,553); Cloned into the Nco I and Bgl II sites of pFUSE-mIgG2A-Fc in frame with the IL-2 secretory leader and the Fc; also called peptide p5-Fc fusion construct; source: HEK293T/17, transient transfection, purified from culture supernatant (protein …)
Consider B1, for which the EC50 in experiment [1] is about 15 nM; in experiment [2], 4 nM; in experiment [3], 1 nM. The molecule further yielded a Kd in experiment [4] of 3 nM. For the same molecule, in experiment [4], the signal deflection is 200 au.

B2: peptide p5 (peptide)
peptide: GGGYSKAQKAQAKQAKQAQKAQKAQAKQAKQ
modifications: also: biotinylated in EuLISA, site not given here, 125I-labelled in pulldown assays
notes: non-natural 31-amino acid peptide with eight lysines in a heptad repeat; also called biotinylated-p5; source: synthetic peptide (Anaspec), purified by RP-HPLC
Turning to B2, the EC50 in experiment [1] was about 200 nM; in experiment [2], 230 nM; in experiment [3], 14 nM. The same molecule showed a Kd in experiment [4] of 5 nM. In experiment [4], this molecule displayed a signal deflection of 100 au.

The values are drawn from publication PMC5591422, “A Peptide-Fc Opsonin with Pan-Amyloid Reactivity” (Frontiers in Immunology, 2017).
